Data published in patent US20140377284A1 (BIOCEROX PRODUCTS B V, published 2014).

T1: human CD134 (full-length, on cells) (human, UniProt P43489 29-277)
T1 sequence: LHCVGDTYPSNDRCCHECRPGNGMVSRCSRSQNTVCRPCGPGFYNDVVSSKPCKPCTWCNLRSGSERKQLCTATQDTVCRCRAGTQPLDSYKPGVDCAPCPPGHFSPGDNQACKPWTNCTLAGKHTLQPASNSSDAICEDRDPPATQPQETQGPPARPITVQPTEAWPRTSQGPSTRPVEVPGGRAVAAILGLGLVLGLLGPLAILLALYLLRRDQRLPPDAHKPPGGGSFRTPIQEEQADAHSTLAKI


Key:
[1] = molecular target: T1, human CD134 (full-length, on cells); test: flow cytometry, PHA-stimulated human CD3+ T lymphocytes
[2] = molecular target: T2, recombinant human CD134:human Fcγ (IgG1) fusion protein (human, UniProt P01857-1 100-330 = IgG part, limits assumed); test: ELISA, plate-bound CD134:Fc 50 ng/well
T2 construct: domain: Fcγ (IgG1); Bought (R&D Systems); also called rhuCD134
T2 sequence (P01857 other isoform, or with tags, fused parts or gaps limits assumed): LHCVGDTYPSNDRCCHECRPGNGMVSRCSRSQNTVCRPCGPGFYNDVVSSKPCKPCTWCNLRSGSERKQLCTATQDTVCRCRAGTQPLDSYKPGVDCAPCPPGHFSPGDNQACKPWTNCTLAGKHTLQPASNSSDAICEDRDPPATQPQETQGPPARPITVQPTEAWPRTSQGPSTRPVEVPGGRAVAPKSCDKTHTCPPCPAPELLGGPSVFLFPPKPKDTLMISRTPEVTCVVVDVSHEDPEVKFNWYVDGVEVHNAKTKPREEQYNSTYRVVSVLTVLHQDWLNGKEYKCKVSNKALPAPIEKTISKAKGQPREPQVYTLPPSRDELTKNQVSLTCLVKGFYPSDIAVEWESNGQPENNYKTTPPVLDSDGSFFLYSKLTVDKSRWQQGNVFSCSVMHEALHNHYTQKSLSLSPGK
Description: Ninety six-wells flat-bottom ELISA plates (Corning) were coated with 50 ng/well recombinant human CD134:human Fcγ (IgG1) fusion protein (R&D Systems) in PBS o/n at 4° C. After extensive washing in PBS/0.05% Tween 20, plates were blocked in PBS/0.05% Tween 20/1% BSA fraction V (Roche) for 1 hour at RT. […] After extensive washing in PBS/0.05% Tween 20, binding of antibodies was determined with 1:5000 diluted horseradish peroxidase-conjugated goat anti-mouse (Fcγ specific) antibodies (Jackson ImmunoResearch) or with 1:4000 diluted horseradish peroxidase-conjugated goat anti-human κ-specific antibodies (Southern Biotech) for 1 hour at RT, followed by a ready-to-use solution of TMB substrate (Invitrogen) for colorimetric detection. After adding 1 M H₂SO₄, optical densities were measured at, a wavelength of 450 nm (reference wavelength of 655 nm) using a microplate reader (BioRad).

[3] = molecular target: T1, human CD134 (full-length, on cells); test: flow cytometry, stable CD134 293-F clone no. 5
Description: (§1) Full-length human CD134 (SEQ ID NO. 1) was re-cloned in a pcDNA3.1-derived expression plasmid (see Example 11 (d) below). […] After extensive washing in PBS/BSA/NaN₃, cells were subsequently incubated with 1:200 diluted PE-conjugated goat anti-mouse IgG (Fcγ specific) antibodies (Jackson ImmunoResearch) or with 1:200 diluted PE-conjugated goat anti-human IgG (Fcγ specific) antibodies (Jackson ImmunoResearch) for 30 minutes at 4° C. After extensive washing in PBS/BSA/NaN₃, cells were fixed in 2% formaldehyde in PBS/BSA/NaN₃ for 30 minutes at 4° C. Binding of antibodies was measured using flow cytometry (FACSCalibur; BD Biosciences).

[4] = molecular target: T1, human CD134 (full-length, on cells); test: cell-based or functional assay
[5] = molecular target: T1, human CD134 (full-length, on cells); test: flow cytometry, stable CD134 293-F clone no. 23
Description: as §1

[6] = molecular target: T1, human CD134 (full-length, on cells); test: competition flow cytometry, stable CD134 293-F clone no. 5; competitor biotinylated mouse 12H3 at 700 ng/mL
Description: Full-length human CD134 (SEQ ID NO1) was re-cloned in a pcDNA3.1-derived expression plasmid (see Example 11 (c) above). […] After extensive washing in PBS/BSA/NaN₃, cells were fixed in 2% formaldehyde in PBS/BSA/NaN₃ for 30 minutes at 4° C.

Row | Molecule | EC50 [2] | binding result [3] | EC50 [5] | IC50 [6] | further results
1 | commercially available mouse anti-human CD134 antibody clone ACT35 | – | – | – | – | EC50 [1]: 2.5 µg/mL; saturating concentration [1]: 5 µg/mL
2 | humanized IgG4κ anti-human CD134 antibody clone 20E5 version 20E5_VL1VH2 (antibody, V domains shown, Stabilized human IgG4/κ; end of each range computed; also called 20E5_VL1H2; VL1H2) VH: QVQLVQSGAEVKKPGASVKVSCKASGYTFTSYVMHWVRQAPGQRLEWIGYINPYNDGTKYNEKFKGRATITSDTSASTAYMELSSLRSEDTAVYYCANYYGSSLSMDYWGQGTLVTVSS VL: DIQMTQSPSSLSASVGDRVTITCRASQDISNYLNWYQQKPGKAPKLLIYYTSRLHSGVPSRFSGSGSGTDYTLTISSLQPEDFATYYCQQGNTLPWTFGQGTKVEIKR | ~0.15 µg/mL | binds | – | – | –
3 | humanized IgG4κ anti-human CD134 antibody clone 20E5 version 20E5_VL2VH3 (antibody, V domains shown, Stabilized human IgG4/κ; end of each range computed) VH: QVQLVQSGAEVKKPGASVKVSCKASGYTFTSYVMHWVRQAPGQRLEWIGYINPYNDGTKYNEKFKGRATLTSDKSASTAYMELSSLRSEDTAVYYCANYYGSSLSMDYWGQGTLVTVSS VL: DIQMTQSPSSLSASVGDRVTITCRASQDISNYLNWYQQKPGKAVKLLIYYTSRLHSGVPSRFSGSGSGTDYTLTISSLQPEDFATYFCQQGNTLPWTFGQGTKVEIKR | ~0.1 µg/mL | binds | – | – | –
4 | humanized IgG4κ anti-human CD134 antibody clone 20E5 version 20E5_VL2VH2 (antibody, V domains shown, Stabilized human IgG4/κ; end of each range computed) VH: QVQLVQSGAEVKKPGASVKVSCKASGYTFTSYVMHWVRQAPGQRLEWIGYINPYNDGTKYNEKFKGRATITSDTSASTAYMELSSLRSEDTAVYYCANYYGSSLSMDYWGQGTLVTVSS VL: DIQMTQSPSSLSASVGDRVTITCRASQDISNYLNWYQQKPGKAVKLLIYYTSRLHSGVPSRFSGSGSGTDYTLTISSLQPEDFATYFCQQGNTLPWTFGQGTKVEIKR | ~0.1 µg/mL | binds | – | – | –
5 | humanized IgG4κ anti-human CD134 antibody clone 20E5 version 20E5_VL1VH3 (antibody, V domains shown, Stabilized human IgG4/κ; end of each range computed; also called 20E5_VL1H3; 2-E5_VL1VH3) VH: QVQLVQSGAEVKKPGASVKVSCKASGYTFTSYVMHWVRQAPGQRLEWIGYINPYNDGTKYNEKFKGRATLTSDKSASTAYMELSSLRSEDTAVYYCANYYGSSLSMDYWGQGTLVTVSS VL: DIQMTQSPSSLSASVGDRVTITCRASQDISNYLNWYQQKPGKAPKLLIYYTSRLHSGVPSRFSGSGSGTDYTLTISSLQPEDFATYYCQQGNTLPWTFGQGTKVEIKR | ~0.1 µg/mL | binds | – | – | –
6 | humanized IgG4κ anti-human CD134 antibody clone 20E5 version 20E5_VL2VH1 (antibody, V domains shown, Stabilized human IgG4/κ; end of each range computed; also called 20E5_VL2H1) VH: QVQLVQSGAEVKKPGASVKVSCKASGYTFTSYVMHWVRQAPGQRLEWMGYINPYNDGTKYNEKFKGRVTITSDTSASTAYMELSSLRSEDTAVYYCANYYGSSLSMDYWGQGTLVTVSS VL: DIQMTQSPSSLSASVGDRVTITCRASQDISNYLNWYQQKPGKAVKLLIYYTSRLHSGVPSRFSGSGSGTDYTLTISSLQPEDFATYFCQQGNTLPWTFGQGTKVEIKR | ~0.1 µg/mL | binds | – | – | –
7 | mouse anti-human CD134 monoclonal antibody clone 20E5 (antibody, V domains shown, also called m20E5; parental mouse anti-human CD134 antibody clone 20E5) VH: EVQLQQSGPELVKPGASVKMSCKASGYTFTSYVMHWVKQKPGQGLEWIGYINPYNDGTKYNEKFKGKATLTSDKSSSTAYMELSSLTSEDSAVYYCANYYGSSLSMDYWGQGTSVTVSS VL: DIQMTQTTSSLSASLGDRVTISCRASQDISNYLNWYQQKPDGTVKLLIYYTSRLHSGVPSRFSGSGSGTDYSLTISNLEQEDIATYFCQQGNTLPWTFGGGTKLEIKR | – | – | – | – | EC50 [1]: ~2.5 µg/mL
8 | humanized IgG4κ anti-human CD134 antibody clone 12H3 version 12H3_VL1VH2 (antibody, V domains shown, Stabilized human IgG4/κ; end of each range computed; also called 12H3_VL1H2; 2H3 VL1VH2 (SF2)) VH: QVQLVQSGAEVKKPGSSVKVSCKASGYTFKDYTMHWVRQAPGQGLEWIGGIYPNNGGSTYNQNFKDRVTLTADKSTSTAYMELSSLRSEDTAVYYCARMGYHGPHLDFDVWGQGTTVTVSS VL: DIQMTQSPSSLSASVGDRVTITCKASQDVGAAVAWYQQKPGKAPKLLIYWASTRHTGVPSRFSGSGSGTDFTLTISSLQPEDFATYYCQQYINYPLTFGGGTKVEIKR | ~0.05 µg/mL | – | < 0.2 µg/mL | ~1.5 µg/mL | Replication Index, Treg/Teff ratio 0:1, donor 1 [4]: 13.9; Replication Index, Treg/Teff ratio 0:1, donor 2 [4]: 12.1; Replication Index, Treg/Teff ratio 0:1, donor 3 [4]: 10.2; Replication Index, Treg/Teff ratio 0:1, donor 4 [4]: 10.7; Replication Index, Treg/Teff ratio 0:1, donor 5 [4]: 8.66; Replication Index, Treg/Teff ratio 1:2, donor 1 [4]: 5.33; Replication Index, Treg/Teff ratio 1:2, donor 2 [4]: 5.82; Replication Index, Treg/Teff ratio 1:2, donor 3 [4]: 6; Replication Index, Treg/Teff ratio 1:2, donor 4 [4]: 6.05; Replication Index, Treg/Teff ratio 1:2, donor 5 [4]: 4.71; Replication Index, Treg/Teff ratio 1:4, donor 1 [4]: 5.23; Replication Index, Treg/Teff ratio 1:4, donor 2 [4]: 5.21; Replication Index, Treg/Teff ratio 1:4, donor 3 [4]: 5.23; Replication Index, Treg/Teff ratio 1:4, donor 4 [4]: 5.51; Replication Index, Treg/Teff ratio 1:4, donor 5 [4]: 4.81
9 | humanized IgG4κ anti-human CD134 antibody clone 12H3 version 12H3_VL2VH2 (antibody, V domains shown, Stabilized human IgG4/κ; end of each range computed; also called 12H3_VL2H2) VH: QVQLVQSGAEVKKPGSSVKVSCKASGYTFKDYTMHWVRQAPGQGLEWIGGIYPNNGGSTYNQNFKDRVTLTADKSTSTAYMELSSLRSEDTAVYYCARMGYHGPHLDFDVWGQGTTVTVSS VL: DIQMTQSPSSLSASVGDRVTITCKASQDVGAAVAWYQQKPGKAPKLLIYWASTRHTGVPDRFSGGGSGTDFTLTISSLQPEDFATYYCQQYINYPLTFGGGTKVEIKR | ~0.05 µg/mL | – | < 0.2 µg/mL | ~1.5 µg/mL | –
10 | humanized IgG4κ anti-human CD134 antibody clone 12H3 version 12H3_VL1VH1 (antibody, V domains shown, Stabilized human IgG4 (Angal et al.)/κ; also called 12H3_VL1H1) VH: QVQLVQSGAEVKKPGSSVKVSCKASGYTFKDYTMHWVRQAPGQGLEWMGGIYPNNGGSTYNQNFKDRVTITADKSTSTAYMELSSLRSEDTAVYYCARMGYHGPHLDFDVWGQGTTVTVSS VL: DIQMTQSPSSLSASVGDRVTITCKASQDVGAAVAWYQQKPGKAPKLLIYWASTRHTGVPSRFSGSGSGTDFTLTISSLQPEDFATYYCQQYINYPLTFGGGTKVEIKR | ~0.05 µg/mL | – | < 0.2 µg/mL | ~1.5 µg/mL | –
11 | humanized IgG4κ anti-human CD134 antibody clone 12H3 version 12H3_VL2VH1 (antibody, V domains shown, Stabilized human IgG4/κ; end of each range computed; also called 12H3_VL2H1) VH: QVQLVQSGAEVKKPGSSVKVSCKASGYTFKDYTMHWVRQAPGQGLEWMGGIYPNNGGSTYNQNFKDRVTITADKSTSTAYMELSSLRSEDTAVYYCARMGYHGPHLDFDVWGQGTTVTVSS VL: DIQMTQSPSSLSASVGDRVTITCKASQDVGAAVAWYQQKPGKAPKLLIYWASTRHTGVPDRFSGGGSGTDFTLTISSLQPEDFATYYCQQYINYPLTFGGGTKVEIKR | ~0.05 µg/mL | – | < 0.2 µg/mL | ~1.5 µg/mL | –
12 | humanized IgG4κ anti-human CD134 antibody clone 12H3 version 12H3_VL1VH3 (antibody, V domains shown, Stabilized human IgG4/κ; end of each range computed; also called 12H3_VL1H3) VH: QVQLVQSGAEVKKPGSSVKVSCKASGYTFKDYTMHWVRQAPGQGLEWIGGIYPNNGGSTYNQNFKDRATLTVDKSTSTAYMELSSLRSEDTAVYYCARMGYHGPHLDFDVWGQGTTVTVSS VL: DIQMTQSPSSLSASVGDRVTITCKASQDVGAAVAWYQQKPGKAPKLLIYWASTRHTGVPSRFSGSGSGTDFTLTISSLQPEDFATYYCQQYINYPLTFGGGTKVEIKR | ~0.05 µg/mL | – | < 0.2 µg/mL | ~1.5 µg/mL | –
13 | humanized IgG4κ anti-human CD134 antibody clone 12H3 version 12H3_VL2VH3 (antibody, V domains shown, Stabilized human IgG4/κ; end of each range computed) VH: QVQLVQSGAEVKKPGSSVKVSCKASGYTFKDYTMHWVRQAPGQGLEWIGGIYPNNGGSTYNQNFKDRATLTVDKSTSTAYMELSSLRSEDTAVYYCARMGYHGPHLDFDVWGQGTTVTVSS VL: DIQMTQSPSSLSASVGDRVTITCKASQDVGAAVAWYQQKPGKAPKLLIYWASTRHTGVPDRFSGGGSGTDFTLTISSLQPEDFATYYCQQYINYPLTFGGGTKVEIKR | ~0.05 µg/mL | – | < 0.2 µg/mL | ~1.5 µg/mL | –
